Reference: PMC2722981

Molecular target: PCBP1 KH1/2 (mouse, UniProt P60335 13-170)
Assay: filter binding

Sequence of PCBP1 KH1/2 (P60335 13-170): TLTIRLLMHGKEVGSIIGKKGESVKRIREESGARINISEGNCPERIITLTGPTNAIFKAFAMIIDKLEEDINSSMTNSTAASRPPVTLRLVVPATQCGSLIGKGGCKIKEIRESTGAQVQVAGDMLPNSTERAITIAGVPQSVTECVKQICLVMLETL

B1: R7a1 (structured_RNA)
RNA: GGAGUGACCUUCUCAACUUUAUAUUCCCUUUACCCCUUCCCCCAAGGCACU
- Kd: 42.3 ± 12 nM
